From the nanobody polyreactivity screen of Harvey et al. (2022)

Assay: yeast display, Sf9 membrane polyspecificity reagent, FACS + sequencing; frameworks hold sequencing errors
Outline: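 Synthetic nanobody libraries on Saccharomyces cerevisiae BJ5465 were galactose-induced for 36–48 hours, stained 1 hour at 4 °C with 10% biotinylated, detergent-solubilized Sf9 membrane reagent and enriched on streptavidin microbeads. FACS then separated cells into low and high (top ~1%) gates by anti-HA (expression) and streptavidin (reagent binding) fluorescence. Genes were colony-PCR amplified, MiSeq 2 × 250 sequenced and CDR-length filtered. A clone's polyreactivity label is that of its gate of origin.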

QVQLVESGGGLVQAGGSLRLSCAASGFIFRDNAMGWYRQAPGKERELVASIRSSGGRTYYADSVKGRFTISRDNAKNTVYLQMNSLKPEDTAVYYCARRWYPVTPYARMYYWGQGTQVTVSS
polyreactivity (PSR sort gate): low polyreactivity

QVQLVESGGGLVQAGGSLRLSCAASGFIFRGNAMGWYRQAPGKERELVAAISVRGGRTYYADSVKGRFTISRDNAKNTVYLQMNSLKPEDTAVYYCAADLYNRGRGSSQSYRTGYDYWGQGTQVTVSS
polyreactivity (PSR sort gate): high polyreactivity

QVQLVESGGGLVQAGGSLRLSCAASGFIFRGYAMGWYRQAPGKERELVAAITSSGGDTYYADSVKGRFTISRDNAKNTVYLQMNSLKPEDTAVYYCAKRARRIGDVNMGSWGQGTQVTVSS
polyreactivity (PSR sort gate): low polyreactivity

QVQLVESGGGLVQAGGSLRLSCAASGFIFRGYGMGWYRQAPGKERELVASITTGGRTNYADSVKGRFTISRDNAKNTVYVQMNSLKPEDTAVYYCAATYYLRLRRPYWQGFNYWGQGTQVTVSS
polyreactivity (PSR sort gate): high polyreactivity

QVQLVESGGGLVQAGGSLRLSCAASGFIFRGYTMGWYRQAPGKERELVAAITTTSSTYYADSVKGRFTISRDNAKNTVYLQMNSLKPEDTAVYYCAALFYRYGYLYNYWGQGTQVTVSS
polyreactivity (PSR sort gate): high polyreactivity

QVQLVESGGGLVQAGGSLRLSCAASGFIFRHYAMGWYRQAPGKARELVAVINWSGSSTYYADSVKGRFTISRDNAKNTVYLQMNSLKPEDTAVYYCAVRSLRVDKYGYWGQGTQVTVSS
polyreactivity (PSR sort gate): high polyreactivity

QVQLVESGGGLVQAGGSLRLSCAASGFIFRHYTMGWYRQAPGKERELVAAISSGGSTYYADSVKGRFTISRDNEKNTVYLQMNSLKPEDTAVYYCAARSRIYGLLFYYWGLGTQVTVSS
polyreactivity (PSR sort gate): high polyreactivity

QVQLVESGGGLVQAGGSLRLSCAASGFIFRKYAMGWYRHAPGKETELVAAITRNGGRTYYADSVKGRFTISRDNAKYTVYLQMNSLKPEDTAVFYCNRRGQYTFWPIHEYWGQGTQVTVSS
polyreactivity (PSR sort gate): high polyreactivity

QVQLVESGGGLVQAGGSLRLSCAASGFIFRLYAMGWYRQAPGKERELVAAISSSGGRTTYADSVKGRFTISRDNAKNTVYLQMNSLKPEDTAVYYCNADLWPGNHDGYWGQGTQVTVSS
polyreactivity (PSR sort gate): low polyreactivity

QVQLVESGGGLVQAGGSLRLSCAASGFIFRNYALGWYRQAPGTERELVAAITGRGTSTYYADSVKGRFTISRDNAKNTVYLQMNSLKPEDTAVYYCAARSLALVYRKYDYWGQGTQVTVSS
polyreactivity (PSR sort gate): high polyreactivity

QVQLVESGGGLVQAGGSLRLSCAASGFIFRNYAMGWYRQAPGKERELVASISRGTSTNYADSVKGRFTISRDNAKNTVDLQMNSLKPEDTAVYYCAVGRYPYGSARYGFDYWGQGTQVSVSS
polyreactivity (PSR sort gate): high polyreactivity

QVQLVESGGGLVQAGGSLRLSCAASGFIFRNYAMGWYRQAPGKERELVAVISQRGGSTYYADSVKGRFTSSRDNAKNTVYVQMNSLKPEDTAVYYGAKRKDYNRRGYDYWGQGTQVTVSS
polyreactivity (PSR sort gate): high polyreactivity

QVQLVESGGGLVQAGGSLRLSCAASGFIFRNYVMGWKRPAPGKERELVADITFSGGGTYYADSVKGRFTISRDNAKNTVYLLMNSLIPEDTAVYYCAVYWNWQYDYCGQGTQVTVSS
polyreactivity (PSR sort gate): high polyreactivity

QVQLVESGGGLVQAGGSLRLSCAASGFIFRPYAMGWYRQAPGKERELVAAISYGDGITYYADSVKGRFTISRDNAKNTVYLQMNSLKPEDTAVYDCAVDSHPEEYDYWGQGTQVTVSS
polyreactivity (PSR sort gate): low polyreactivity

QVQLVESGGGLVQAGGSLRLSCAASGFIFRPYAMGWYRQAPGKERELVATISYRGGSTDYADSVKGRFTISRDNAKNTVYLQMNSLKPEDTAVYYCNAGYNRGYYYPVFAFFPYEYWGQGTQVTVSS
polyreactivity (PSR sort gate): low polyreactivity

QVQLVESGGGLVQAGGSLRLSCAASGFIFRQNAMGWYRQAPGKEWELVARITWNGGRTYYADSVKGRFTISRDNAKNTVYLQMHSLKPEDTAVYYCNAVYWGYGKYDYWGQGTQVTVSS
polyreactivity (PSR sort gate): high polyreactivity

QVQLVESGGGLVQAGGSLRLSCAASGFIFRRNAMGWYRQAPGKERELVATIRASGGRTYYADSVKGRFTISRDNAKNTVYLQMNSLKPEDTAVYYCNKRGGYYGSPNYDYWGQGTQVTVSS
polyreactivity (PSR sort gate): high polyreactivity
